The assay deals with microtubules (polymerized porcine tubulin) (porcine) (UniProt P02550). Put plainly: co-sedimentation; purified MTBDs (1-32 uM) mixed with 5 uM paclitaxel-stabilised porcine MTs; 100 mM PIPES pH 6.8, 50 mM NaCl, 2 mM MgCl2, 1 mM EGTA; 210,000 x g, 25 °C, 10 min; pellets on SDS-PAGE, densitometry, one-site curve fitting.

pKd: −log10 of the molar value.

The term pKd denotes −log10 of the Kd, conventionally taken in molar units. Higher therefore signals a small Kd. In turn, “MTBD-WT (microtubule-binding domain of yeast cytoplasmic dynein, K3096-E3232) (from UniProt P36022 3096-3232) (domain or fragment)” had a pKd of 5.17.

These data come from paper PMC7042235.
